Here are results for one substance from US5187153A, “Methods of treatment using Alzheimer's amyloid polypeptide derivatives” (Scios Nova Inc., priority 1990, dated 1993).

In this experiment the target is Trypsin (Homo sapiens, UniProt P07477). Description: Trypsin inhibition assay, release of p-nitroaniline from N-benzoyl-D-arginine-p-nitroaniline. The format is biochemical. The following applies: HPLC peaks of the purified inhibitor. The procedure: All 8 oligonucleotides encoding either the phoA or ompA fusions were mixed together and treated with ligase. […] The ligated constructs were then ligated into the NdeI-HindIII sites of the vector pTRP233. The ligated vectors were transfected into E. coli strain MC1061 and Amp^R colonies selected. […] Miniprep DNA was used to transfect strains W3110 and JE5505. Small scale cultures of each of the three strains were grown and induced with IAA overnight. Culture supernatants were examined for trypsin inhibitory activity. Trypsin is assayed for its ability to hydrolyze the synthetic substrate N-benzoyl-D-arginine-p-nitroaniline to release p-nitroaniline (pNA). The release of pNA as a function of time is easily monitored in a spectrophotomer and can be quantitated to measure trypsin activity. The inhibitor is detected in this assay by virtue of its ability to bind to trypsin and prevent hydrolysis of the substrate by trypsin. Inhibitory activity was detected in the culture medium for both ompA and phoA constructs in JE5505 but not W3110 or MC1061. Expression levels appeared to be higher with the phoA construct and so only this construct was used for subsequent experiments.

Where no end group is shown, it is not given here.

With “peak 4: major HPLC peak of the purified inhibitor; full length A4i with 3 disulfide bridges (EVCSEQAETGPCRAMISRWYFDVTEGKCAPFFYGGCGGNRNNFDTEEYCMAVCGSAM; disulfide (positions not given here); UniProt P05067 289-345, looked up, fragment)”, the “activity in the trypsin inhibition assay” value is “active”.
